This note sets out measurements from publication PMC2976518.

In data set [1] the target is S9A/R54E/Q115R Sin (highly activated Sin mutant with the active site serine changed) (Staphylococcus aureus (plasmid pI9789)). Nature of the data set: AUC.
The target is the same in data set [2]. Nature of the data set: AUC. The source holds these as a separate data set.
Data set [3] deals with I100T Sin (mildly activated Sin mutant) (Staphylococcus aureus (plasmid pI9789)). Kind of data set: AUC.
Data set [4] has the same target. Kind of data set: AUC. The source holds these as a separate data set.
Another data set has as its target Sin I100T (Staphylococcus aureus (plasmid pI9789), UniProt Q53757 1-202, I100T). Nature of the data set: AUC sedimentation velocity.
The target of the next data set is Sin S9A/R54E/Q115R (Staphylococcus aureus (plasmid pI9789), UniProt Q53757 1-202, S9A;R54E;Q115R). Kind of data set: AUC sedimentation velocity and equilibrium.

Several values for one entry are separate records, joined by “and”; a condition that tells them apart may be missing. Identical values can stand only once. Like-named read-outs stand apart in the source and are kept apart here.

In general, Kd refers to the constant that tells how readily two partners part at equilibrium. A word on the stoichiometry N: it is the number of molecules, sites or subunits per partner or assembly. Turning to “S9A/R54E/Q115R Sin (highly activated Sin mutant with the active site serine changed) (enzyme)”, the Kd stood at 400 nM in data set [1] and 450 nM in data set [2]. Moreover, the stoichiometry N in data set [1] is 2 and 4.
Consider “I100T Sin (mildly activated Sin mutant) (enzyme)”, for which the stoichiometry N in data set [3] and in data set [4] was 2 throughout.

B1: 52-mer site I dsDNA (AUC) (dsDNA)
DNA 1: GCCTAGTTCTTTGTGAAATTTGGGTATACCCTAATCATACAAGCTTGATCTG
DNA 2: CAGATCAAGCTTGTATGATTAGGGTATACCCAAATTTCACAAAGAACTAGGC
B1: the binding result with Sin I100T and with Sin S9A/R54E/Q115R was “binds” throughout.
